Measurements published in US20190359687A1 (Bayer, published 2019).
No end group written: not given here. *: point of attachment. Biotin = O=C1N[C@H]2[C@H](CS[C@H]2CCCCC(=O)*)N1

T1: GP5-14 alanine scanning peptide (human, N-terminal biotin)
T1 construct: GP5 with alanine at position 14
T1 peptide: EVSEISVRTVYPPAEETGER

T2: GP5-11 alanine scanning peptide (human, N-terminal biotin)
T2 construct: GP5 with alanine at position 11
T2 peptide: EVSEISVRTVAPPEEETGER

T3: GP5-13 alanine scanning peptide (human, N-terminal biotin)
T3 construct: GP5 with alanine at position 13
T3 peptide: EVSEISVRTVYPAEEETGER

T4: GP5-16 alanine scanning peptide (human, N-terminal biotin)
T4 construct: GP5 with alanine at position 16
T4 peptide: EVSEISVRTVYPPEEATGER

T5: GP13 peptide (human)
T5 peptide: Biotin-PPEEETGE

T6: GP7 peptide (human)
T6 peptide: Biotin-SVRTVYPP

T7: GP11 peptide (human)
T7 peptide: Biotin-VYPPEEET

T8: GP9 peptide (human)
T8 peptide: Biotin-RTVYPPEE

T9: GP8 peptide (human)
T9 peptide: Biotin-VRTVYPPE

T10: GP12 peptide (human)
T10 peptide: Biotin-YPPEEETG

T11: GP14 peptide (human)
T11 peptide: Biotin-PEEETGER

T12: GP15 peptide (human)
T12 peptide: Biotin-EEETGERV

T13: GP16 peptide (human)
T13 peptide: Biotin-EETGERVQ

T14: GP10 peptide (human)
T14 peptide: Biotin-TVYPPEEE

T15: B-domain deleted FVIII (human, UniProt P00451 20-2351)
T15 construct: control without scFv; also called BDD; BDD-FVIII
T15 sequence (looked up): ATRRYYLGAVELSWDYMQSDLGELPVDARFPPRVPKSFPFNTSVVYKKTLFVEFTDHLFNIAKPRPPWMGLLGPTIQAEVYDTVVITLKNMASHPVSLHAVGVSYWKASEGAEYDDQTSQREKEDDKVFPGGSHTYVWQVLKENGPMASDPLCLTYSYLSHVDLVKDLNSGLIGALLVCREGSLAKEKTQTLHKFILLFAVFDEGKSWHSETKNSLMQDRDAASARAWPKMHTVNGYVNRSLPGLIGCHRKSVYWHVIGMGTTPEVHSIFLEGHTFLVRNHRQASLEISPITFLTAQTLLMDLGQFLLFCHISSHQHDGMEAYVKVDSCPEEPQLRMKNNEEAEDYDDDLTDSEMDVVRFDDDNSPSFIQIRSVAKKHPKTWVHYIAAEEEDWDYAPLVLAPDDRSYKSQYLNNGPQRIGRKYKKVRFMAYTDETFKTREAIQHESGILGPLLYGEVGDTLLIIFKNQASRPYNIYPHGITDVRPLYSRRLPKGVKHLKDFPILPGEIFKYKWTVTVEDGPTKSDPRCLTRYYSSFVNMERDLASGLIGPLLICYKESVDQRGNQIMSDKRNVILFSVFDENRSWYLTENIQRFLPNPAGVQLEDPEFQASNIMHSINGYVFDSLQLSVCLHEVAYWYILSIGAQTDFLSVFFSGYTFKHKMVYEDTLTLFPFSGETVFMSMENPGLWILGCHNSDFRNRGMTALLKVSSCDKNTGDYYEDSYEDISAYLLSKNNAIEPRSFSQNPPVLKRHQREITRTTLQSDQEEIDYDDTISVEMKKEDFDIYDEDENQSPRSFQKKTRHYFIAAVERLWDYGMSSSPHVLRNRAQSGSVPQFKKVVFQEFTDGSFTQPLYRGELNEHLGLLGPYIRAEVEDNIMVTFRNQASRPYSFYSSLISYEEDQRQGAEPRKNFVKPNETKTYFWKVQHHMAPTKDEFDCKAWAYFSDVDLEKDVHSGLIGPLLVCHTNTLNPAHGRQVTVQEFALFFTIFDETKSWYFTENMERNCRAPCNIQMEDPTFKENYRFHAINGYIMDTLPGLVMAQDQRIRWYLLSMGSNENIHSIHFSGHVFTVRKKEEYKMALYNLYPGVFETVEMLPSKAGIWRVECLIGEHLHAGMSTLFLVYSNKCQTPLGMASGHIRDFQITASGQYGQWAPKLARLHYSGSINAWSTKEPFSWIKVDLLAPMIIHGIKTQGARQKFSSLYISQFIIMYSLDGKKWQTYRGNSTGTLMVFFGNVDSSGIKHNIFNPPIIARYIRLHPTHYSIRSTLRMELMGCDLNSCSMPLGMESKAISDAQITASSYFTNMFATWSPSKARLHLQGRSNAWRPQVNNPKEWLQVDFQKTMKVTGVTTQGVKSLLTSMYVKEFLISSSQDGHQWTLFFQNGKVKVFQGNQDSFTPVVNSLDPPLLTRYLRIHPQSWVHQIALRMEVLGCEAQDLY

B1: TPP-5906 Fab (Fab, V domains shown)
VH: EVQLVQSGAEVKKPGASVKVSCKASGYTFTTYTIHWVRQAPGQGLEWMGYINPSSGYTRYNPKFKGRVTMTRDKSTSTAYMELRSLRSDDTAVYYCQTGTRDYWGQGTTVTVSS
VL: DIQLTQSPSFLSASVGDRVTITCRASSSVSYIYWFQQKPGKAPKLLIYATSTLQSGVPSRFSGSGSGTEYTLTISSLQPEDFATYYCHQRNSFPYTFGQGTKLEIKR
notes: also called parental humanized and germlined 6C12 Fab
B2: human glycophorin A in the red blood cell membrane (other, UniProt P02724 20-150, looked up)
chain: LSTTEVAMHTSTSSSVTKSYISSQTNDTHKRDTYAATPRAHEVSEISVRTVYPPEEETGERVQLAHHFSEPEITLIIFGVMAGVIGTILLISYGIRRLIKKSPSDVKPLPSPDTDVPLSSVEIENPETSDQ
notes: whole, on cells; used for intact RBC, isolated RBC membranes and transfected cells; the assay field tells which; also called GPA; hGPA

Legend:
[1] = target: B2; assay: SPR, human RBC membranes, Fab
Method: Kinetic analysis of the antibody binding to human red blood cell membranes was also performed using surface plasmon resonance (SPR) using a Biacore instrument. In this assay membranes prepared from human red blood cells were attached to a L1 sensor matrix and antibodies were flowed over the RBC membranes.

[2] = target: T1, GP5-14 alanine scanning peptide; assay: alanine scanning peptide ELISA
[3] = target: T2, GP5-11 alanine scanning peptide; assay: alanine scanning peptide ELISA
[4] = target: T3, GP5-13 alanine scanning peptide; assay: alanine scanning peptide ELISA
[5] = target: T4, GP5-16 alanine scanning peptide; assay: alanine scanning peptide ELISA
[6] = target: T5, GP13 peptide; assay: peptide ELISA, Fab
From the text: (§1) These peptides were attached to the surface of a streptavidin coated plate via a biotin moiety that was present at the N-terminus of each peptide.

[7] = target: T6, GP7 peptide; assay: peptide ELISA, Fab
From the text: as §1

[8] = target: T7, GP11 peptide; assay: peptide ELISA, Fab
From the text: as §1

[9] = target: T8, GP9 peptide; assay: peptide ELISA, Fab
From the text: as §1

[10] = target: T9, GP8 peptide; assay: peptide ELISA, Fab
From the text: as §1

[11] = target: T10, GP12 peptide; assay: peptide ELISA, Fab
From the text: as §1

[12] = target: T11, GP14 peptide; assay: peptide ELISA, Fab
From the text: as §1

[13] = target: T12, GP15 peptide; assay: peptide ELISA, Fab
From the text: as §1

[14] = target: T13, GP16 peptide; assay: peptide ELISA, Fab
From the text: as §1

[15] = target: T14, GP10 peptide; assay: peptide ELISA, Fab
From the text: as §1

[16] = target: T15, B-domain deleted FVIII; assay: RBC partition assay, FVIII activity left in plasma

| fold improvement of affinity against the parental antibody [1] [fold] | percent reduction of binding [2] [%] | percent reduction of binding [3] [%] | percent reduction of binding [4] [%] | percent reduction of binding [5] [%] | binding result [6] | binding result [7] | binding result [8] | binding result [9] | binding result [10] | binding result [11] | binding result [12] | binding result [13] | binding result [14] | binding result [15] | binding result [16] | Binder |
| --- | --- | --- | --- | --- | --- | --- | --- | --- | --- | --- | --- | --- | --- | --- | --- | --- |
| ~200 | > 95 | > 95 | 70 | 50 | no binding (tested: 0.5 ug/ml) | no binding (tested: 0.5 ug/ml) | no binding (tested: 0.5 ug/ml) | no binding (tested: 0.5 ug/ml) | no binding (tested: 0.5 ug/ml) | no binding (tested: 0.5 ug/ml) | no binding (tested: 0.5 ug/ml) | no binding (tested: 0.5 ug/ml) | no binding (tested: 0.5 ug/ml) | no binding (tested: 0.5 ug/ml) |  | B1 |
|  |  |  |  |  |  |  |  |  |  |  |  |  |  |  | no binding (tested: 1 IU/mL) | B2 |
